Substitutions are numbered along the chain they refer to. Each block holds one binder with its values, some of them ahead of it.
Legend:
[1] = biological target: T1, biotinylated equine IL31 (immobilized to the biolayer interferometry sensor) (equine, biotinylated, sites not stated); assay: biolayer interferometry, biotinylated equine IL31 on the sensor, preliminary measurement
T1 chain: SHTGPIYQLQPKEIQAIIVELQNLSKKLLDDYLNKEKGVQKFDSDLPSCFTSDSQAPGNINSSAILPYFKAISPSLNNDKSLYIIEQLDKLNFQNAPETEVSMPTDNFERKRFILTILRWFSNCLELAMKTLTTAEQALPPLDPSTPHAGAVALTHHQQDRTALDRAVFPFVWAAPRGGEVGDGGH

[2] = biological target: T2, canine IL31 with C-terminal polyHis tag (canine, biotinylated (EZ-Link NHS-LC-biotin), sites not stated); assay: biolayer interferometry (Octet), biotinylated canine IL31 on streptavidin tips, 2:1 binding model
T2 construct: also called biotinylated canine IL31
T2 chain: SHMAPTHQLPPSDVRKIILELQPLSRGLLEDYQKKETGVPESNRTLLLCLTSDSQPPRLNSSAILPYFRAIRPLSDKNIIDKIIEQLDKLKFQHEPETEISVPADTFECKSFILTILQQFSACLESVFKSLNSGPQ
Method: The binding analysis was performed using a biosensor Octet as follows. Briefly, canine IL31 was biotinylated. The free unreacted biotin was removed from biotinylated IL31 by extensive dialysis. Biotinylated canine IL31 was captured on streptavidin sensor tips. The association of four different concentrations (400, 200, 66.6, and 33 nM) of antibody and IL31 (human and canine, in different tests) was monitored for ninety seconds. Dissociation was monitored for 600 seconds. A buffer only blank curve was subtracted to correct for any drift. The data were fit to a 2:1 binding model using ForteBio™ data analysis software to determine the kₒₙ, koff, and the Kd. The buffer for dilutions and all binding steps was: 20 mM phosphate, 150 mM NaCl, pH 7.2.

Kd [1]: 10 to 50 nM
B1: M14 antibody (as used in Example 7) (antibody, V domains shown)
VH: EVQLQESGPSLVKPSQTLSLTCSVTGDSITSGYWNWIRKFPGNKLEYMGYISYSGITDYNPSLKSRISITRDTSKNQYYLQLNSVTTEDTATYYCARYGNYGYAMDYWGQGTSVTVSS
VL: DIVLTQSPASLAVSLGQRATISCRASESVDTYGNSFMHWYQQKSGQSPKLLIYRASNLESGIPARFGGSGSRTDFTLTIDPVEADDVATYYCQQSYEDPWTFGGGTKLEIK
notes: also called monoclonal antibody M14

Kd [2]: < 0.01 nM
B2: caninized M14 IgG-B (antibody, V domains shown)
VH: B1 VH with Q5V, S15G, Q16G, T17S, S19R, S68T, T70S, S113L
VL: DIVMTQSPASLSVSLGQRATISCRASESVDTYGNSFMHWYQQKPGQSPKLLIYRASNLESGIPARFGGSGSGTDFTLTIDPVQADDVATYYCQQSYEDPWTFGGGTKLEIKR
notes: canine IgG-B; also called caninized M14 antibody; caninized IL31-mAb M14
